Measurements as given in the supplement of paper PMC7877785.
± gives the uncertainty stated by the source.

Assay: self-splicing fitness, log relative to wild type (ln ratio); higher = more splicing; Tetrahymena group I intron in knt gene, E. coli kanamycin selection, DiMSum; sequences stand for … in CUCUCU…GGAGGGAAAAGUUAUCAGGCAUGCACCUGGUAGCUAGUCUUUAAACCAAUAGAUUGCAUCGGUUUAAAAGGCAAGACCGUCAAAUUGCGGGAAAGGGGUCAACAGCCGUUCAGUACCAAGUCUCAGGGGAAACUUUGAGAUGGCCUUGCAAAGGGUAUGGUAAUAAGCUGACGGACAUGGUCCUAACCACGCAGCCAAGUCCUAAGUCAACAGAUCUUCUGUUGAUAUGGAUGCAGUUCACAGACUAAAUGUCGGUCGGGGAAGAUGUAUUCUUCUCAUAAGAUAUAGUCGGACCUCUCCUUAAUGGGAGCUAGCGGAUGAAGUGAUGCAACACUGGAGCCGCUGGGAACUAAUUUGUAUGCGAAAGUAUAUUGAUUAGUUUUGGAGUACUCGUGGUCG
Procedure, shortened: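 The eight P1ex-region nucleotides of an intron in the knt kanamycin-resistance gene on pET-22b(+) were all randomised and the library put into E. coli BL21(DE3). Six replicate transformations were grown overnight at 37°C or 30°C on LB agar with or without 25 μg/mL kanamycin, together with 100 μg/mL carbenicillin, 50 μM IPTG and 0.2% rhamnose. Colonies were pooled and amplicon-sequenced on an Illumina HiSeq 2500. Fitness from DiMSum is the error-weighted combination of wild-type-normalised replicate fold changes, kanamycin over none.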

Sequence | self-splicing fitness (ln) (30 °C) | self-splicing fitness (ln) (37 °C)
AGACAGCAAUAUUACGACGU | 0.00817 ± 0.047 | -0.185 ± 0.051
AGACAGCAAUAUUACGAGUC | -3.06 ± 0.19 | -2.52 ± 0.22
AGACAGCAAUAUUACGAUGA | -2.02 ± 0.12 | -0.531 ± 0.094
AGACAGCAAUAUUACGAUGG | -3.44 ± 0.16 | -2.21 ± 0.16
AGACAGCAAUAUUACGCAAU | -2.41 ± 0.17 | -0.644 ± 0.11
AGACAGCAAUAUUACGCCGU | -3.43 ± 0.21 | -2.91 ± 0.29
AGACAGCAAUAUUACGCGAA | -2.45 ± 0.12 | -0.878 ± 0.1
AGACAGCAAUAUUACGCUCC | -3.32 ± 0.48 | -1.64 ± 0.19
AGACAGCAAUAUUACGUAGU | -3.27 ± 0.1 | -1.88 ± 0.1
AGACAGCAAUAUUACGUAUA | -2.54 ± 0.14 | -0.807 ± 0.13
AGACAGCAAUAUUACGUAUU | -2.58 ± 0.11 | -1.4 ± 0.12
AGACAGCAAUAUUACGUCGG | -2.44 ± 0.15 | -0.528 ± 0.15
AGACAGCAAUAUUACGUCUC | -2.87 ± 0.19 | -3.53 ± 0.35
AGACAGCAAUAUUACGUGAU | -2.36 ± 0.075 | -0.742 ± 0.087
AGACAGCAAUAUUACGUGCA | -0.683 ± 0.069 | -0.00672 ± 0.079
AGACAGCAAUAUUACGUGGC | -3.01 ± 0.19 | -2.12 ± 0.22
AGACAGCAAUAUUACGUUAA | -3.26 ± 0.14 | -1.27 ± 0.087
AGACAGCAAUAUUACGUUAG | -3.69 ± 0.21 | -2.14 ± 0.15
AGACAGCAAUAUUACGUUGU | -3.02 ± 0.13 | -2.21 ± 0.12
AGAGAGCAAUAUUACGAAAA | – | -1.5 ± 0.5
AGAGAGCAAUAUUACGACAG | -3.47 ± 0.43 | -2.52 ± 0.41
AGAGAGCAAUAUUACGAGUC | – | -2.23 ± 0.29
AGAGAGCAAUAUUACGAUCG | -1.94 ± 0.11 | -0.822 ± 0.18
AGAGAGCAAUAUUACGCAAA | -2.1 ± 0.32 | -2.69 ± 0.48
AGAGAGCAAUAUUACGCGAA | -3.26 ± 0.37 | -2.82 ± 0.34
AGAGAGCAAUAUUACGCGCG | – | -1.3 ± 0.48

Sequence | self-splicing fitness (ln) (30 °C) | self-splicing fitness (ln) (37 °C)
AGAGAGCAAUAUUACGGGCG | -3.07 ± 0.34 | -2.3 ± 0.5
AGAGAGCAAUAUUACGGGCU | -3.62 ± 0.23 | -1.48 ± 0.42
AGAGAGCAAUAUUACGGUUG | – | -1.45 ± 0.41
AGAGAGCAAUAUUACGUACU | -1.2 ± 0.13 | -1 ± 0.15
AGAGAGCAAUAUUACGUCAU | – | -1.01 ± 0.16
AGAGAGCAAUAUUACGUGAU | -3.94 ± 0.18 | -2.1 ± 0.23
AGAGAGCAAUAUUACGUUGA | -2.77 ± 0.23 | -2.06 ± 0.26
AGAUAGCAAUAUUACGAAUA | -2.76 ± 0.49 | -2.16 ± 0.48
AGAUAGCAAUAUUACGAAUU | -2.43 ± 0.15 | -1.25 ± 0.16
AGAUAGCAAUAUUACGAGAC | -3.94 ± 0.23 | -2.96 ± 0.22
AGAUAGCAAUAUUACGAGCA | -0.984 ± 0.1 | -0.95 ± 0.11
AGAUAGCAAUAUUACGAUCA | -0.325 ± 0.089 | -0.00339 ± 0.11
AGAUAGCAAUAUUACGCCAG | -3.6 ± 0.5 | -1.78 ± 0.39
AGAUAGCAAUAUUACGCGAA | -3.1 ± 0.28 | -0.447 ± 0.17
AGAUAGCAAUAUUACGCGCA | -0.594 ± 0.063 | -0.129 ± 0.094
AGAUAGCAAUAUUACGCUAC | -2.97 ± 0.44 | -2.56 ± 0.38
AGAUAGCAAUAUUACGCUCC | – | 0.0911 ± 0.49
AGAUAGCAAUAUUACGCUGU | -3.36 ± 0.25 | -3.22 ± 0.4
AGAUAGCAAUAUUACGGACA | -0.869 ± 0.15 | -0.224 ± 0.16
AGAUAGCAAUAUUACGGAUU | -1.39 ± 0.1 | 0.228 ± 0.13
AGAUAGCAAUAUUACGGCAU | -0.734 ± 0.11 | 0.242 ± 0.12
AGAUAGCAAUAUUACGGCUA | 0.0313 ± 0.1 | 0.162 ± 0.098
AGAUAGCAAUAUUACGGGAG | -2.43 ± 0.26 | -1.95 ± 0.23
AGAUAGCAAUAUUACGGGUU | -2.78 ± 0.2 | -2.29 ± 0.25
AGAUAGCAAUAUUACGGUUC | -1.77 ± 0.12 | -0.791 ± 0.19
AGAUAGCAAUAUUACGUAAG | -1.31 ± 0.065 | -1.44 ± 0.088

Sequence | self-splicing fitness (ln) (30 °C) | self-splicing fitness (ln) (37 °C)
AGAUAGCAAUAUUACGUAAU | -1.52 ± 0.11 | -0.657 ± 0.12
AGAUAGCAAUAUUACGUAUG | -2.57 ± 0.15 | -2.3 ± 0.17
AGAUAGCAAUAUUACGUCAU | -1.89 ± 0.097 | -0.716 ± 0.096
AGAUAGCAAUAUUACGUCUC | -3.01 ± 0.21 | -3.05 ± 0.4
AGAUAGCAAUAUUACGUGAU | -1.92 ± 0.11 | -0.886 ± 0.11
AGAUAGCAAUAUUACGUUAC | -2.05 ± 0.48 | –
AGAUAGCAAUAUUACGUUAU | -3.23 ± 0.17 | -3.55 ± 0.25
AGCAAGCAAUAUUACGAAAG | -2.4 ± 0.23 | -1.36 ± 0.22
AGCAAGCAAUAUUACGAGGC | -4.52 ± 0.34 | -2.51 ± 0.23
AGCAAGCAAUAUUACGAUAC | – | -1.72 ± 0.46
AGCAAGCAAUAUUACGCAUU | -2.57 ± 0.17 | -1.45 ± 0.19
AGCAAGCAAUAUUACGGACC | 0.36 ± 0.2 | -0.517 ± 0.22
AGCAAGCAAUAUUACGGCAA | -0.272 ± 0.069 | -0.342 ± 0.086
AGCAAGCAAUAUUACGGCAG | -0.65 ± 0.065 | -0.357 ± 0.082
AGCAAGCAAUAUUACGUACC | -0.796 ± 0.078 | 0.398 ± 0.097
AGCAAGCAAUAUUACGUAGA | -2.83 ± 0.15 | -2.44 ± 0.2
AGCAAGCAAUAUUACGUGCA | -0.675 ± 0.058 | 0.058 ± 0.077
AGCAAGCAAUAUUACGUGUC | -3.85 ± 0.23 | -2.44 ± 0.17
AGCAAGCAAUAUUACGUGUG | -2.9 ± 0.1 | -1.17 ± 0.081
AGCAAGCAAUAUUACGUUUG | -4.51 ± 0.22 | -2.76 ± 0.18
AGCCAGCAAUAUUACGAACG | -3.24 ± 0.27 | -2.97 ± 0.37
AGCCAGCAAUAUUACGAAGC | -1.65 ± 0.22 | -1.96 ± 0.37
AGCCAGCAAUAUUACGACUU | -1.6 ± 0.1 | -0.895 ± 0.12
AGCCAGCAAUAUUACGAGAU | -3.39 ± 0.18 | -2.28 ± 0.2
AGCCAGCAAUAUUACGAUCA | – | -2.69 ± 0.32
AGCCAGCAAUAUUACGCAAG | -3.8 ± 0.34 | -2.98 ± 0.4
